Measured values from patent US20090117613A1, “Method for redox reaction using an old yellow enzyme” (priority 2007, published 2009).

Assays:
[1] = Reductase activity using cyclohexenone as substrate; format: biochemical; settings: for reductase activity (saturation of cyclohexenone): 30, 50, and 70° C.
Protocol: (§1) The desaturation reaction was carried out using cyclohexanone with all three enzymes at 30, 50, and 70° C. The reductase activity using cyclohexenone as substrate was also measured under similar conditions.

[2] = Reduction of carvone to dihydrocarvone; format: biochemical; settings: cyclohexenone and carvone as substrates
Protocol: The sample for the reduction reaction contained: 500 μL protein solution+(+)Carvone (˜1.5 μL)+200 μL GDH 102 (10 mg/mL) and Glucose (200 mM)+100 μL NADPH (10 mM). The final volume of the reaction was 800 μL. The reaction was carried out for 24 h at various temperatures (see table 2).

[3] = Desaturation of cyclohexanone to cyclohex-2-enone and phenol; settings: 30, 50, and 70° C.
Protocol: The reaction sample contained 500 μL protein solution and 10 mM Cyclohexanone (˜1 μL). The final volume of the reaction was ˜500 μL. The reaction was carried out at 70° C. for 24 hours.
as §1

[4] = GkOYE-catalyzed desaturation of testosterone to boldenone (HPLC/MS); format: biochemical; settings: 30-70° C., varied in 5° C. increments

Molecule	reductase activity (saturation of cyclohexenone) [1]	enone reductase activity ([1]; 70° C.)	stereoselectivity of reductase activity [2]	desaturation of cyclohexanone [3]	testosterone hydroxylation or desaturation (oxidized testosterone derivative) [4]
YqjM: Homologous OYE from Bacillus subtilis (similarity: 80%), expression clone from TU-Graz (protein, UniProt P54550 2-338, looked up) NADPH dehydrogenase: ARKLFTPITIKDMTLKNRIVMSPMCMYSSHEKDGKLTPFHMAHYISRAIGQVGLIIVEASAVNPQGRITDQDLGIWSDEHIEGFAKLTEQVKEQGSKIGIQLAHAGRKAELEGDIFAPSAIAFDEQSATPVEMSAEKVKETVQEFKQAAARAKEAGFDVIEIHAAHGYLIHEFLSPLSNHRTDEYGGSPENRYRFLREIIDEVKQVWDGPLFVRVSASDYTDKGLDIADHIGFAKWMKEQGVDLIDCSSGALVHADINVFPGYQVSFAEKIREQADMATGAVGMITDGSMAEEILQNGRADLIFIGRELLRDPFFARTAAKQLNTEIPAPVQYERGW	significantly reduced reductase activity	demonstrated	comparable to GkOYE	no desaturation was observed	no oxidized testosterone derivative is detected
OPR3: OPR3 (tomato) recombinant OYE, expression clone from TU-Graz (protein, UniProt Q9FEW9 1-396, looked up) 12-oxophytodienoate reductase …: MASSAQDGNNPLFSPYKMGKFNLSHRVVLAPMTRCRALNNIPQAALGEYYEQRATAGGFLITEGTMISPTSAGFPHVPGIFTKEQVREWKKIVDVVHAKGAVIFCQLWHVGRASHEVYQPAGAAPISSTEKPISNRWRILMPDGTHGIYPKPRAIGTYEISQVVEDYRRSALNAIEAGFDGIEIHGAHGYLIDQFLKDGINDRTDEYGGSLANRCKFITQVVQAVVSAIGADRVGVRVSPAIDHLDAMDSNPLSLGLAVVERLNKIQLHSGSKLAYLHVTQPRYVAYGQTEAGRLGSEEEEARLMRTLRNAYQGTFICSGGYTRELGIEAVAQGDADLVSYGRLFISNPDLVMRIKLNAPLNKYNRKTFYTQDPVVGYTDYPFLQGNGSNGPLSRL	almost inactive at 50 °C	–	comparable to GkOYE	no desaturation was observed	–
